Assay results: the supplement of paper PMC9732359
± gives the uncertainty stated by the source.

Experiment: protein stability index of a GFP-peptide fusion (yeast GPS) (PSI 1-4); higher = more stable; sorted into four equal gates, so the index is relative within each strain
Summary of the method: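 Tiled 17-residue yeast protein peptides were fused downstream of GFP in a plasmid that also expresses Cherry, and the pooled library was carried in yeast. Mid-log cultures in leucine-free medium were sorted into four equal gates by GFP/Cherry fluorescence ratio, and plasmids from each gate were PCR-amplified and Illumina-sequenced, with reads assigned to strains by barcodes. The protein stability index for each peptide was each gate's read frequency times its gate number, summed.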

LEHDVEYRPFSKKVLEC [DIS3]
protein stability index (doa10∆): 3.4 ± 0.18 | protein stability index (pdr5∆): 3.6 ± 0.1 | protein stability index (san1∆): 3.48 ± 0.07 | protein stability index (ubr1∆): 3.37 ± 0.073

EKDFCTSCLQNNNQKID [SRB8]
protein stability index (doa10∆): 3.13 ± 0.09 | protein stability index (pdr5∆): 3.29 ± 0.13 | protein stability index (ubr1∆): 2.93 ± 0.055

SHKTTKEDTVSWFKQKY [RPL11A]
protein stability index (doa10∆): 1.8 ± 0.064 | protein stability index (pdr5∆): 1.56 ± 0.054 | protein stability index (san1∆): 1.36 ± 0.12 | protein stability index (ubr1∆): 1.53 ± 0.064

RMAKYLNNTHVISSGPL [RPC53]
protein stability index (doa10∆): 2.96 ± 0.13 | protein stability index (pdr5∆): 2.91 ± 0.16 | protein stability index (san1∆): 2.74 ± 0.074 | protein stability index (ubr1∆): 2.47 ± 0.069

SKIIVFPRDGKAPEAEQ [RPL13B]
protein stability index (doa10∆): 3.15 ± 0.085 | protein stability index (pdr5∆): 3.2 ± 0.08 | protein stability index (san1∆): 3.18 ± 0.058 | protein stability index (ubr1∆): 3.33 ± 0.052

QINPTRETNDDIWRVAG [SNF2]
protein stability index (doa10∆): 2.6 ± 0.064 | protein stability index (pdr5∆): 2.26 ± 0.066 | protein stability index (san1∆): 2.25 ± 0.069 | protein stability index (ubr1∆): 2.14 ± 0.052

INKYESSPSHIELVVTE [RPL17A]
protein stability index (doa10∆): 2.08 ± 0.045 | protein stability index (pdr5∆): 2.56 ± 0.051 | protein stability index (san1∆): 2.05 ± 0.067 | protein stability index (ubr1∆): 2.17 ± 0.036

NHNKTKLLKSLKNTKYF [PRP8]
protein stability index (doa10∆): 1.8 ± 0.078 | protein stability index (pdr5∆): 1.83 ± 0.052 | protein stability index (san1∆): 1.54 ± 0.095 | protein stability index (ubr1∆): 2.15 ± 0.073

RFKNSVKWYHFDHNDKK [PRE7]
protein stability index (doa10∆): 2.32 ± 0.057 | protein stability index (pdr5∆): 2.76 ± 0.064 | protein stability index (san1∆): 2.69 ± 0.043 | protein stability index (ubr1∆): 2.62 ± 0.043

VPTKIARGTIEIVSDVK [RPP0]
protein stability index (doa10∆): 2.26 ± 0.25 | protein stability index (pdr5∆): 2.38 ± 0.055 | protein stability index (san1∆): 2 ± 0.17

EYIFEAHEIIKREEKAM [CDC53]
protein stability index (doa10∆): 1.77 ± 0.039 | protein stability index (pdr5∆): 2.39 ± 0.088 | protein stability index (san1∆): 2.54 ± 0.086 | protein stability index (ubr1∆): 2.28 ± 0.043

ALRALQENGTIFRGSLI [YDL088C/ASM4]
protein stability index (doa10∆): 2.02 ± 0.11 | protein stability index (pdr5∆): 1.68 ± 0.076 | protein stability index (san1∆): 1.28 ± 0.1 | protein stability index (ubr1∆): 1.53 ± 0.092

QTRKEYNTSILEFRWLT [SIN4]
protein stability index (doa10∆): 1.74 ± 0.073 | protein stability index (pdr5∆): 1.74 ± 0.059 | protein stability index (san1∆): 1.83 ± 0.093 | protein stability index (ubr1∆): 2.42 ± 0.098

DLNHVTEELQTQYATSQ [SMC2]
protein stability index (doa10∆): 3.11 ± 0.19 | protein stability index (pdr5∆): 3.17 ± 0.12 | protein stability index (san1∆): 3.16 ± 0.1 | protein stability index (ubr1∆): 3.44 ± 0.2

ISGYKKFSSTSRYMQYN [RPT1]
protein stability index (doa10∆): 1.26 ± 0.18 | protein stability index (pdr5∆): 1.59 ± 0.15 | protein stability index (san1∆): 1.56 ± 0.2 | protein stability index (ubr1∆): 1.7 ± 0.11

PFMLQWGIPLIKELRSK [FAS1]
protein stability index (doa10∆): 1.69 ± 0.069 | protein stability index (pdr5∆): 1.63 ± 0.074 | protein stability index (san1∆): 1.44 ± 0.1 | protein stability index (ubr1∆): 1.58 ± 0.049

ARTATVSKKWAAAGVCE [RPL14B]
protein stability index (doa10∆): 2.9 ± 0.089 | protein stability index (pdr5∆): 3.21 ± 0.084 | protein stability index (san1∆): 3.58 ± 0.11 | protein stability index (ubr1∆): 2.72 ± 0.066

SVTAQVYKIALRLTEQK [RPC82]
protein stability index (doa10∆): 1.79 ± 0.15 | protein stability index (pdr5∆): 2.19 ± 0.14 | protein stability index (san1∆): 2.22 ± 0.19

DYVVAPGVNREINSEMC [GRR1]
protein stability index (pdr5∆): 3.18 ± 0.2 | protein stability index (san1∆): 3.32 ± 0.082 | protein stability index (ubr1∆): 3.13 ± 0.064

VFENYVKKTGENEISSL [CDC53]
protein stability index (doa10∆): 3.14 ± 0.069 | protein stability index (pdr5∆): 2.74 ± 0.072 | protein stability index (san1∆): 2.9 ± 0.07 | protein stability index (ubr1∆): 3.15 ± 0.042

LLQGGAKVVVTTSRFSK [FAS2]
protein stability index (doa10∆): 2.72 ± 0.077 | protein stability index (pdr5∆): 2.43 ± 0.068 | protein stability index (san1∆): 2.72 ± 0.056 | protein stability index (ubr1∆): 2.78 ± 0.047

EALIEFIYDTEKNGGLG [FAS2]
protein stability index (doa10∆): 2.52 ± 0.079 | protein stability index (pdr5∆): 2.63 ± 0.076 | protein stability index (san1∆): 2.67 ± 0.054 | protein stability index (ubr1∆): 2.17 ± 0.055

TIRQIILPDSLNLDSLL [SMD1]
protein stability index (doa10∆): 3.03 ± 0.076 | protein stability index (pdr5∆): 2.67 ± 0.065 | protein stability index (san1∆): 3.11 ± 0.055 | protein stability index (ubr1∆): 2.7 ± 0.046

FKVQELLHSKPSLLLQK [NAS6]
protein stability index (doa10∆): 2.23 ± 0.13 | protein stability index (pdr5∆): 2.3 ± 0.074 | protein stability index (san1∆): 2.64 ± 0.14 | protein stability index (ubr1∆): 2.31 ± 0.084

IAGTFNVGKPDQSIASG [YOR098C/NUP1]
protein stability index (doa10∆): 3.14 ± 0.1 | protein stability index (pdr5∆): 2.68 ± 0.18 | protein stability index (san1∆): 2.96 ± 0.063 | protein stability index (ubr1∆): 2.98 ± 0.082

STNSNSKPSTASPSAHT [RPN4]
protein stability index (doa10∆): 2.63 ± 0.055 | protein stability index (pdr5∆): 3.01 ± 0.086 | protein stability index (san1∆): 2.75 ± 0.061 | protein stability index (ubr1∆): 2.82 ± 0.042

SGRCDGYILEGEELAFY [RPS8A]
protein stability index (doa10∆): 3.32 ± 0.12 | protein stability index (pdr5∆): 3.44 ± 0.12 | protein stability index (san1∆): 3.29 ± 0.093 | protein stability index (ubr1∆): 3.36 ± 0.074

TGALINNLEPRQTTSNT [RPN11]
protein stability index (doa10∆): 3.12 ± 0.1 | protein stability index (pdr5∆): 3.25 ± 0.15 | protein stability index (san1∆): 2.62 ± 0.15 | protein stability index (ubr1∆): 3.02 ± 0.076

LAGMDVEDALDKDSTKE [FAS2]
protein stability index (doa10∆): 3.43 ± 0.27 | protein stability index (pdr5∆): 3.72 ± 0.19

VEEVIKLVRDSFTSATE [PRE7]
protein stability index (doa10∆): 3.06 ± 0.078 | protein stability index (pdr5∆): 3.33 ± 0.066 | protein stability index (san1∆): 3.18 ± 0.052 | protein stability index (ubr1∆): 3 ± 0.061

VREYEQPDANKKKRSRT [ISW2]
protein stability index (doa10∆): 3.13 ± 0.14 | protein stability index (pdr5∆): 3.31 ± 0.12 | protein stability index (san1∆): 3.25 ± 0.13 | protein stability index (ubr1∆): 3.29 ± 0.11

EATREVFGISKTSSGSY [ITC1]
protein stability index (doa10∆): 3.33 ± 0.09 | protein stability index (pdr5∆): 3.09 ± 0.077 | protein stability index (san1∆): 3.23 ± 0.068 | protein stability index (ubr1∆): 3.29 ± 0.041

KAKTTKKVVLRLECVKC [RPL42A]
protein stability index (doa10∆): 1.64 ± 0.22 | protein stability index (pdr5∆): 1.52 ± 0.17 | protein stability index (ubr1∆): 1.81 ± 0.065

DRPGSKFHKREVVEAVT [RPL3]
protein stability index (doa10∆): 3.04 ± 0.15 | protein stability index (pdr5∆): 1.96 ± 0.14 | protein stability index (san1∆): 2.02 ± 0.19 | protein stability index (ubr1∆): 2.41 ± 0.13

QRDLYKRKEELVSTLTT [SMC2]
protein stability index (doa10∆): 2.14 ± 0.073 | protein stability index (pdr5∆): 1.91 ± 0.063 | protein stability index (san1∆): 2.64 ± 0.071 | protein stability index (ubr1∆): 1.82 ± 0.053

LAYRNYWTQYLGLFIHK [YJL039C/NUP192]
protein stability index (doa10∆): 1.94 ± 0.057 | protein stability index (pdr5∆): 1.56 ± 0.037 | protein stability index (san1∆): 1.9 ± 0.055 | protein stability index (ubr1∆): 2.02 ± 0.039

SCISISDIISMLQISDD [RRI2]
protein stability index (doa10∆): 1.82 ± 0.083 | protein stability index (pdr5∆): 1.34 ± 0.061 | protein stability index (san1∆): 1.19 ± 0.12 | protein stability index (ubr1∆): 1.14 ± 0.04

LTADARSMIEHARTAAV [PUP2]
protein stability index (doa10∆): 2.11 ± 0.13 | protein stability index (pdr5∆): 2.87 ± 0.22 | protein stability index (san1∆): 2.38 ± 0.16 | protein stability index (ubr1∆): 2.71 ± 0.084

SELIRTTLDAEKVFTQG [FAS1]
protein stability index (doa10∆): 3.14 ± 0.067 | protein stability index (pdr5∆): 3.16 ± 0.066 | protein stability index (san1∆): 3.22 ± 0.079 | protein stability index (ubr1∆): 3.08 ± 0.07

GIFLHGKIPTLKISLIQ [PRP8]
protein stability index (doa10∆): 2.26 ± 0.042 | protein stability index (pdr5∆): 2.03 ± 0.035 | protein stability index (san1∆): 1.79 ± 0.053 | protein stability index (ubr1∆): 1.78 ± 0.029

YPDLCSIYDKWTDPNLK [RPN1]
protein stability index (doa10∆): 2.69 ± 0.091 | protein stability index (pdr5∆): 2.66 ± 0.072 | protein stability index (san1∆): 2.21 ± 0.11 | protein stability index (ubr1∆): 2.93 ± 0.085

FKHISVKDFTSLGFNEV [RPO21]
protein stability index (doa10∆): 3.08 ± 0.21 | protein stability index (pdr5∆): 2.38 ± 0.12 | protein stability index (san1∆): 2 ± 0.14 | protein stability index (ubr1∆): 2.25 ± 0.044

TNSSILLGKILPREEHD [RRP6]
protein stability index (doa10∆): 1.55 ± 0.064 | protein stability index (pdr5∆): 2.18 ± 0.16 | protein stability index (san1∆): 1.61 ± 0.25 | protein stability index (ubr1∆): 1.58 ± 0.11

RHSGKVYPITLSTDATS [UBP6]
protein stability index (doa10∆): 1.98 ± 0.072 | protein stability index (pdr5∆): 2.76 ± 0.066 | protein stability index (san1∆): 2.74 ± 0.057 | protein stability index (ubr1∆): 2.02 ± 0.045

DKKKGQNVTSETHSKKR [ITC1]
protein stability index (doa10∆): 3.1 ± 0.087 | protein stability index (pdr5∆): 3.12 ± 0.076 | protein stability index (san1∆): 3.16 ± 0.061 | protein stability index (ubr1∆): 3.04 ± 0.039

RVADEDANLNDLPETGF [IRR1]
protein stability index (doa10∆): 3 ± 0.095 | protein stability index (pdr5∆): 3.22 ± 0.11 | protein stability index (san1∆): 3.44 ± 0.078 | protein stability index (ubr1∆): 3.13 ± 0.089

PVLKKKAAFLGSEVRLR [COR1]
protein stability index (doa10∆): 2.91 ± 0.074 | protein stability index (pdr5∆): 3.16 ± 0.071 | protein stability index (san1∆): 2.97 ± 0.07 | protein stability index (ubr1∆): 3.3 ± 0.078

FQDTLYKKIPLLGPTLE [QCR10]
protein stability index (doa10∆): 2.84 ± 0.13 | protein stability index (pdr5∆): 2.94 ± 0.11 | protein stability index (san1∆): 2.47 ± 0.18 | protein stability index (ubr1∆): 2.95 ± 0.1
